Measurements from US20090048117A1 (Harvard, published 2009).

T1: NFATc expressed from an expression construct
T1 sequence (O95644 1-943, species assumed, looked up): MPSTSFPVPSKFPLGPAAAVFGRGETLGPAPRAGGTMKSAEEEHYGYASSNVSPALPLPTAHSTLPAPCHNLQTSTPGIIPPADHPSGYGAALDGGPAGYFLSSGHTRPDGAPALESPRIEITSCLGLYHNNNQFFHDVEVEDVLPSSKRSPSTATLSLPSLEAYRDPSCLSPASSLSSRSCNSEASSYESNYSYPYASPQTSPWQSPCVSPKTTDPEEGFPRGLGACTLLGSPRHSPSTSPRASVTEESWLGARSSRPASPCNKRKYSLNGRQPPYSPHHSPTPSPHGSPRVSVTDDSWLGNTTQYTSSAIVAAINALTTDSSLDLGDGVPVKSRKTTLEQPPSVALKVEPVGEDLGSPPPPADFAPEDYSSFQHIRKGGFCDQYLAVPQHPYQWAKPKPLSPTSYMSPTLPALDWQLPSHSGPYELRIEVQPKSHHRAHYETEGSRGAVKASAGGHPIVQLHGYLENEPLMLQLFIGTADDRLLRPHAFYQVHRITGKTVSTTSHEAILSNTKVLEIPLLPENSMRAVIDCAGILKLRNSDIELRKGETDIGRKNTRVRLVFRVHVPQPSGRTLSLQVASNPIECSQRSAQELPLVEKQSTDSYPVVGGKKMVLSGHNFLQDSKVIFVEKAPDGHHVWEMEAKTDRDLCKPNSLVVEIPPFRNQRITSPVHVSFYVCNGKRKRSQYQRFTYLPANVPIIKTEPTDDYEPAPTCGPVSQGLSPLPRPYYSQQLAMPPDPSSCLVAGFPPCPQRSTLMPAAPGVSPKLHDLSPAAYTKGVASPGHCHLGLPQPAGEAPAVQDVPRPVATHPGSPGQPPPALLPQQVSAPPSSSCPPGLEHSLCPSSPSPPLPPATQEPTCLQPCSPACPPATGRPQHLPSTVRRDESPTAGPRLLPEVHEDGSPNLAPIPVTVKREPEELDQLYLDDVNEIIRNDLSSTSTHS

T2: NFAT4 expressed from an expression construct
T2 sequence (Q12968 2-1075, species assumed, looked up): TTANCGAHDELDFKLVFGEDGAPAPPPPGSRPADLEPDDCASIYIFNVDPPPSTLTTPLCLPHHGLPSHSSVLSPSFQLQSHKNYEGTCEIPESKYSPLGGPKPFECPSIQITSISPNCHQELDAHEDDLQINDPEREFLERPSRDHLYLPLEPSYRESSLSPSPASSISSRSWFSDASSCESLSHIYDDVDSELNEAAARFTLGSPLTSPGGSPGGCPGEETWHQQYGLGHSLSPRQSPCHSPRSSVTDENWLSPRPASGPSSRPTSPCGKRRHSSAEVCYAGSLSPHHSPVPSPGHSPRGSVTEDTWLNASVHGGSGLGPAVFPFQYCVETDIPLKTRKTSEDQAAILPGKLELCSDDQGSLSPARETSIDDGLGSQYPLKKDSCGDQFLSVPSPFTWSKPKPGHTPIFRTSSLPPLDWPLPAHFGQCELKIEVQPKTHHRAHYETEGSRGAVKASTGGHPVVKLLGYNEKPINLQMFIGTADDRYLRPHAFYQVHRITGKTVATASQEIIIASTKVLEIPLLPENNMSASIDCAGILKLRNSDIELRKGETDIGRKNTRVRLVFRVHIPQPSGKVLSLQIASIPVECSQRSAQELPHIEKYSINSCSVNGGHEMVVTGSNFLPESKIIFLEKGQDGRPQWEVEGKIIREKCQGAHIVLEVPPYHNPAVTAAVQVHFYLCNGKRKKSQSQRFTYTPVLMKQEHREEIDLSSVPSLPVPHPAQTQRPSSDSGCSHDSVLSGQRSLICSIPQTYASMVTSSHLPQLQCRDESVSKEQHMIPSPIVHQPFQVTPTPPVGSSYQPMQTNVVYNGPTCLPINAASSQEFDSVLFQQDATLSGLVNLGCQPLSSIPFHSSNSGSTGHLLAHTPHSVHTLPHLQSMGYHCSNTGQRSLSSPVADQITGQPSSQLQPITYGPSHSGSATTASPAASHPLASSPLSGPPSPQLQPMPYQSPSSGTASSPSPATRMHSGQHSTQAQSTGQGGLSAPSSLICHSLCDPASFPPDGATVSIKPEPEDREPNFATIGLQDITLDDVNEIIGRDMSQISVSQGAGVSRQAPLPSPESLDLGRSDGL

T3: NFAT3 expressed from an expression construct
T3 sequence (Q14934 1-902, species assumed, looked up): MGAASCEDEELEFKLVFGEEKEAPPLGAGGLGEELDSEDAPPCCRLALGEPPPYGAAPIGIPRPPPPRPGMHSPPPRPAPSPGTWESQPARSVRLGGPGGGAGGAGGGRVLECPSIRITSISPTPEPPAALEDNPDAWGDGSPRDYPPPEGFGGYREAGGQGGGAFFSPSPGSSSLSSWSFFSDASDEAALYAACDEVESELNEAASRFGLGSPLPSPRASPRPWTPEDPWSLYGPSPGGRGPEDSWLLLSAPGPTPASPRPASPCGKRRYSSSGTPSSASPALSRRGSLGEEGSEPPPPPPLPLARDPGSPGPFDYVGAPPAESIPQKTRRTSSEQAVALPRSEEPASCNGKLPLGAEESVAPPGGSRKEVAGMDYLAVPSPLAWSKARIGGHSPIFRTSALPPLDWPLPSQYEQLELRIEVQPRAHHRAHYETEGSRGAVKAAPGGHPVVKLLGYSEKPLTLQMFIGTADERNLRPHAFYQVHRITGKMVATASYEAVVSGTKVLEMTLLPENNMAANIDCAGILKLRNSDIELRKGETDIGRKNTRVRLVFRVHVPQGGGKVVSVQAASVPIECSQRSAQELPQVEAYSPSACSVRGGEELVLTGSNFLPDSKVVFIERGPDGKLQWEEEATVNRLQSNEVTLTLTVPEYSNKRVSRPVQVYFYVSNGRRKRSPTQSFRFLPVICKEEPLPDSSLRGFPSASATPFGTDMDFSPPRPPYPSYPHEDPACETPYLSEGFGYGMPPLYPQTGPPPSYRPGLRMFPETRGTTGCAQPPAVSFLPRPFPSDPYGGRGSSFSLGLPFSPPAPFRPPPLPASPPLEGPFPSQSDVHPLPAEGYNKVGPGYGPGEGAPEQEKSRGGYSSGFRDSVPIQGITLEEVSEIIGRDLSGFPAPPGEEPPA

T4: CARM1 of Jurkat cell lysates (human, UniProt Q86X55 2-608, limits assumed)
T4 sequence (looked up): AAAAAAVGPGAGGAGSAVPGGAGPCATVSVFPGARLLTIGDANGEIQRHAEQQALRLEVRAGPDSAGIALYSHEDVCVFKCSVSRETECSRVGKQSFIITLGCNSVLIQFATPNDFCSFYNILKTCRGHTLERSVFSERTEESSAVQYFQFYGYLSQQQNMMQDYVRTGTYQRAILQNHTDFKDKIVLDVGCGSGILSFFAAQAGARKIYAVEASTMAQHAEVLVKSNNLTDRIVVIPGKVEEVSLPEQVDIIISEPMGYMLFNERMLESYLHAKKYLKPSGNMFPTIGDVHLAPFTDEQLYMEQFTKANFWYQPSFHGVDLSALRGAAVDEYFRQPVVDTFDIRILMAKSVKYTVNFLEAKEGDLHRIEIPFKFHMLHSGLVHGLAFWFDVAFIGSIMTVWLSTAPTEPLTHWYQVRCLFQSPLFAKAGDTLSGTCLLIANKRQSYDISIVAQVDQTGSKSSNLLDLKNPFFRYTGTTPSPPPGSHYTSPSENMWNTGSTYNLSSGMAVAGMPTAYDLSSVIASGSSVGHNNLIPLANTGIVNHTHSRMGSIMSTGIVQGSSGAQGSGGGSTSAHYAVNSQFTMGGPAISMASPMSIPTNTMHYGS

B1: NIP45 expressed from a NIP45 expression plasmid (other)
chain: MAEPLRGRGPRSRGGRGARRARGARGRCPRARQSPARLIPDTVLVDLVSDSDEEVLEVADPVEVPVARLPAPAKPEQDSDSDSEGAAEGPAGAPRTLVRRRRRRLLDPGEAPVVPVYSGKVQSSLNLIPDNSSLLKLCPSEPEDEADLTNSGSSPSEDDALPSGSPWRKKLRKKCEKEEKKMEEFPDQDISPLPQPSSRNKSRKHTEALQKLREVNKRLQDLRSCLSPKQHQSPALQSTDDEVVLVEGPVLPQSSRLFTLKIRCRADLVRLPVRMSEPLQNVVDHMANHLGVSPNRILLLFGESELSPTATPSTLKLGVADIIDCVVLASSSEATETSQELRLRVQGKEKHQMLEISLSPDSPLKVLMSHYEEAMGLSGHKLSFFFDGTKLSGKELPADLGLESGDLIEVWG
B2: GST-NIP45 fusion protein (bacterially expressed, full length NIP45) (other)
chain: B1 chain
notes: also called recombinant GST-NIP45; recombinant full-length NIP45; not shown: glutathione-S-transferase (GST) fusion partner

Columns and labels:
[1] = molecular target: T1, NFATc expressed from an expression …; assay: cell-based or functional assay
[2] = molecular target: T2, NFAT4 expressed from an expression …; assay: cell-based or functional assay
[3] = molecular target: T3, NFAT3 expressed from an expression …; assay: cell-based or functional assay
[4] = molecular target: T4, CARM1 of Jurkat cell lysates; assay: GST pull-down of Jurkat cell lysates, immunoblot with a polyclonal CARM1 antibody
Experimental: FIGS. 16A-16C depict the interaction of NIP45 and PRMT. (A) Jurkat cell lysates were used in pulldown assays with 25 μg of recombinant GST, GST-NIP45, and GST-ΔN-NIP45. The presence of PRMT1 or CARM1 in pulldown samples was determined by immunoblotting with a monoclonal PRMT1 antibody and a polyclonal CARM1 antibody. PVDF membranes were reprobed with anti-GST antibodies to determine equal amount of recombinant proteins in pulldown samples. (B) Flag-NIP45or Flag-ΔN-NIP45 or vector control and HA-PRMT1 expression constructs were transfected in 293 cells. Lysates were immunoprecipitated with anti-Flag agarose and interaction with PRMT1 was determined by probing immunoblots with a monoclonal anti-HA antibody. Equal loading was assessed by probing with an anti-Flag antibody. (C) Lysates from unstimulated or 60 min PMA/ionomycin stimulated day 7 Th1 or Th2 differentiation cultures were immunoprecipitated with a monoclonal PRMT1 antibody or appropriate isotype control. Interaction with endogenous NIP45 was determined by immunoblotting PRMT1 antibody to determine equal loading.
Because PRMT1 methylates NIP45, their interaction was examined more closely. To determine specificity of interaction GST-NIP45 and GST-ΔN-NIP45 fusion proteins were used in pulldown assays of Jurkat cell lysates. […]

Binder | transactivation of a 3X NFAT-CAT reporter in HepG2 cells [1] | transactivation of a 3X NFAT-CAT reporter in HepG2 cells [2] | transactivation of a 3X NFAT-CAT reporter in HepG2 cells [3] | binding result [4]
B1 | 4 fold | 2 fold | 3 fold | 
B2 |  |  |  | no binding (tested: 25 µg of recombinant protein)
